Experimental data from patent US20240269307A1 (JIANGSU HENGRUI PHARMACEUTICALS, published 2024).

T1: human Nectin-4 expressed on cells (Nectin4-CHOK1, T47D, MDA-MB-468) (human, UniProt Q96NY8 32-510)
T1 sequence: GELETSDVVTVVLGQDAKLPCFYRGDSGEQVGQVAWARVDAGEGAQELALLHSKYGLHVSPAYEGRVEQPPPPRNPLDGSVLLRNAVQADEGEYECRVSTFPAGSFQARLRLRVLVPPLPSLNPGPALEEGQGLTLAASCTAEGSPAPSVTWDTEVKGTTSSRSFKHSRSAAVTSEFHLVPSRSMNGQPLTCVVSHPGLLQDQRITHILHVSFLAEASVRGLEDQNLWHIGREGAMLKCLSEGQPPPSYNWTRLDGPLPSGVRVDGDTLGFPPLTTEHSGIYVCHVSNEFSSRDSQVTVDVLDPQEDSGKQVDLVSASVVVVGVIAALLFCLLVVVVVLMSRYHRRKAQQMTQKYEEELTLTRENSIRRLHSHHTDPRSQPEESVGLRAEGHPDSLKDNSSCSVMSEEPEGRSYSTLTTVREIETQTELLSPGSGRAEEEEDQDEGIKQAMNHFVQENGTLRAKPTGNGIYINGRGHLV


Legend:
[1] = target: T1, human Nectin-4 expressed on cells …; assay: cell-based or functional assay
[2] = target: T1, human Nectin-4 expressed on cells …; assay: cell-based or functional assay; remark: listed apart in the source

| Binder | IC50(nM), killing of MDA-MB-468 (++) cells, CTG, 6 days [1] [nM] | IC50(nM), killing of T47D (+++) cells, CTG, 6 days [1] [nM] | IC50 (nM), DT3C antibody endocytosis assay on Nectin4-CHOK1 cells [2] [nM] |
| --- | --- | --- | --- |
| ADC-1 (NEC49-9-A) (antibody, V domains shown, compound 9-A (exatecan analog linker-drug) coupled to cysteine sulfhydryls after TCEP reduction; average loading n=4.90 for the whole antibody; positions not given) VH: EVQLLESGGGLVQPGGSLRLSCAASGFTFSSYAMSWVRQAPGKGLEWVSAIYSGGSTYYADSVKGRFTISRDNSKNTLYLQMNSLRAEDTAVYYCTRHGGDSGSWSYYYYGMDVWGQGTTVTVSS VL: not shown | 87.5 | 111 | – |
| ADC-2 (EV201-9-A) (antibody, human IgG1, kappa, V domains shown, compound 9-A (exatecan analog linker-drug) coupled to cysteine sulfhydryls after TCEP reduction; average loading n=3.90 for the whole antibody; positions not given) VH: EVQLVESGGGLVQPGGSLRLSCAASGFTFSSYNMNWVRQAPGKGLEWVSYISSSSSTIYYADSVKGRFTISRDNAKNSLSLQMNSLRDEDTAVYYCARAYYYGMDVWGQGTTVTVSS VL: DIQMTQSPSSVSASVGDRVTITCRASQGISGWLAWYQQKPGKAPKFLIYAASTLQSGVPSRFSGSGSGTDFTLTISSLQPEDFATYYCQQANSFPPTFGGGTKVEIKR | 152 | 193 | – |
| fully human antibody molecule NEC49 (antibody, V domains shown) VH: EVQLLESGGGLVQPGGSLRLSCAASGFTFSSYAMSWVRQAPGKGLEWVSAIYSGGSTYYADSVKGRFTISRDNSKNTLYLQMNSLRAEDTAVYYCTRHGGDSGSWSYYYYGMDVWGQGTTVTVSS VL: not shown | – | – | 0.43 |
| positive control antibody EV201 (antibody, human IgG1, kappa, V domains shown) VH: EVQLVESGGGLVQPGGSLRLSCAASGFTFSSYNMNWVRQAPGKGLEWVSYISSSSSTIYYADSVKGRFTISRDNAKNSLSLQMNSLRDEDTAVYYCARAYYYGMDVWGQGTTVTVSS VL: DIQMTQSPSSVSASVGDRVTITCRASQGISGWLAWYQQKPGKAPKFLIYAASTLQSGVPSRFSGSGSGTDFTLTISSLQPEDFATYYCQQANSFPPTFGGGTKVEIKR | – | – | 0.5 |
